Reference: the supplement of paper PMC10724198
± gives the standard deviation of the averaged measurements.

Tested on: Saccharomyces cerevisiae
Experiment: protein stability index of tFT-peptide fusion (C-terminal peptide) (PSI (0-1 scale)); higher = more stable (slower turnover)
Details: genetic background: wild type; temperature: 30 C
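Note: PSI is a weighted mean of sequencing reads over stability bins, variants kept only with over 10 reads, mCherry proximal and sfGFP distal, peptide attached via GGGS linker.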

Row | Sequence | protein stability index
1 | SLNQWTGTTLRQ | 0.66 ± 0.02
2 | SLPAFLPAPPLF | 0.6962 ± 0.002
3 | SLPAPPPPPPPH | 0.727 ± 0.034
4 | SLPDTSPSLHPP | 0.59 ± 0.011
5 | SLPPLASPPASI | 0.72 ± 0.1
6 | SLPPPLPRRPPP | 0.729 ± 0.13
7 | SLPPRPCPSHLH | 0.786 ± 0.081
8 | SLPRWLPPPLQS | 0.687 ± 0.0095
9 | SLPSLLFLISLP | 0.543 ± 0.054
10 | SLPSRPLSFYSP | 0.715 ± 0.068
11 | SLPWVLLPTGPY | 0.751 ± 0.075
12 | SLQTHCHKGPLS | 0.718 ± 0.0099
13 | SLRLMTFPPLLL | 0.68 ± 0.08
14 | SLRPPLRPPTVV | 0.601 ± 0.017
15 | SLSAPPPRSTSP | 0.597 ± 0.021
16 | SLSFSLPLFSLG | 0.681 ± 0.013
17 | SLSPARKDSSLP | 0.683 ± 0.15
18 | SLSPPSPTPSHS | 0.7347 ± 0.0043
19 | SLSSAALFHGPF | 0.598 ± 0.065
20 | SLSSPILYLFAS | 0.65 ± 0.013
21 | SLTCRKQTVRVI | 0.53 ± 0.012
22 | SLVSYSPPLPPP | 0.681 ± 0.034
23 | SLWGFWRVVGRR | 0.594 ± 0.052

Row | Sequence | protein stability index
24 | SLYRSAARHLGI | 0.754 ± 0.037
25 | SMFGSVGLMPCG | 0.656 ± 0.02
26 | SMLLFFLPSSSS | 0.641 ± 0.046
27 | SMLVPLPPFSSA | 0.694 ± 0.0097
28 | SMRLELAALLVI | 0.546 ± 0.033
29 | SMVLRTIKKRNI | 0.661 ± 0.015
30 | SNKKRTRNEGKD | 0.6109 ± 0.0047
31 | SNNKSIRKGVSI | 0.79002 ± 6.2e-05
32 | SNQKGQIYYEPS | 0.706 ± 0.08
33 | SNQRQRETKREE | 0.677 ± 0.039
34 | SNRSVININIRI | 0.616 ± 0.058
35 | SPACFKIFCRCF | 0.523 ± 0.046
36 | SPAFSLIPCPLF | 0.742 ± 0.059
37 | SPATDRTSLFES | 0.729 ± 0.022
38 | SPCPPPPAHPPR | 0.728 ± 0.026
39 | SPDLTRPPLPPP | 0.693 ± 0.015
40 | SPFPFLLTAPLA | 0.538 ± 0.0094
41 | SPGPPLLLPPPL | 0.688 ± 0.085
42 | SPGRSSTLPPVF | 0.7101 ± 0.00072
43 | SPGRVSRGNASV | 0.645 ± 0.017
44 | SPGSSIFLYFFT | 0.729 ± 0.022
45 | SPHTPDPTTTPH | 0.648 ± 0.097
46 | SPLETLLCTPSI | 0.675 ± 0.019

Row | Sequence | protein stability index
47 | SPLPPPPHPSPF | 0.505 ± 0.017
48 | SPLRPPSLPAPG | 0.653 ± 0.015
49 | SPLRSCPADPSQ | 0.763 ± 0.082
50 | SPLSLPSIPFGV | 0.672 ± 0.075
51 | SPLTYTAPRCPR | 0.82 ± 0.088
52 | SPLVSSPPPALL | 0.643 ± 0.081
53 | SPPALPRPPRRP | 0.708 ± 0.044
54 | SPPHPRPPTLRT | 0.609 ± 0.013
55 | SPPLSLPFFPRP | 0.641 ± 0.019
56 | SPPPAPVPAPPR | 0.678 ± 0.048
57 | SPPPPRPPSQPS | 0.674 ± 0.021
58 | SPPPPTPPLSPP | 0.669 ± 0.0051
59 | SPPPSSTSTSTS | 0.688 ± 0.061
60 | SPPPTSHPSAPP | 0.638 ± 0.056
61 | SPPSPFAFPLPP | 0.67473 ± 0.00064
62 | SPPSPPSPPPLV | 0.745 ± 0.013
63 | SPPSPYPPPLDR | 0.695 ± 0.021
64 | SPPSSFPVFTLL | 0.728 ± 0.05
65 | SPPTPRIPPPLP | 0.663 ± 0.035
66 | SPPTSPAPLPPP | 0.6502 ± 0.0032
67 | SPPTTHPPSSHG | 0.7486 ± 0.0062
68 | SPPWGQGSVSSK | 0.729 ± 0.052
69 | SPQPPHSPLSAR | 0.653 ± 0.024

Row | Sequence | protein stability index
70 | SPRFLLNCWGRL | 0.821 ± 0.027
71 | SPRGRGARRGRI | 0.705 ± 0.028
72 | SPRLHFPPRHPC | 0.717 ± 0.015
73 | SPRLLPSPTRVA | 0.643 ± 0.059
74 | SPRLSGVPGHAP | 0.663 ± 0.027
75 | SPRPTRPALLPP | 0.708 ± 0.033
76 | SPRRWVSGHPRG | 0.711 ± 0.042
77 | SPRSPACPTPDR | 0.734 ± 0.011
78 | SPRSPPSPPPRP | 0.746 ± 0.045
79 | SPRSPPSTSSPQ | 0.6802 ± 0.001
80 | SPSGCVGSSAQS | 0.68061 ± 0.00045
81 | SPSLAPSPSALL | 0.598 ± 0.018
82 | SPSLPPLSPPNP | 0.699 ± 0.039
83 | SPSPLSHSPLAF | 0.647 ± 0.009
84 | SPSPPLAPPSPS | 0.671 ± 0.0073
85 | SPSPPSLLPAPS | 0.74 ± 0.062
86 | SPSQRPLPSISP | 0.718 ± 0.01
87 | SPSSLPPVPPSP | 0.6764 ± 0.0036
88 | SPSSPPPSPPPA | 0.727 ± 0.016
89 | SPSTSIPPLPAS | 0.73 ± 0.016
90 | SPTARRLSGCIS | 0.658 ± 0.086
91 | SPTIRPDESPVQ | 0.6893 ± 0.0067
92 | SPTPHPPPSPPL | 0.728 ± 0.023

Row | Sequence | protein stability index
93 | SPTPSLPFPALF | 0.737 ± 0.097
94 | SPTRPPSPIISR | 0.7181 ± 0.002
95 | SPVLSPHSRSSF | 0.633 ± 0.087
96 | SPVLSPLSLPPH | 0.6982 ± 0.0042
97 | SPVPIPPSPSRP | 0.687 ± 0.019
98 | SPVRPPLSSLYS | 0.705 ± 0.04
99 | SPVSLPIPYTFL | 0.6891 ± 0.0054
100 | SQAALLIPLFSL | 0.681 ± 0.03
101 | SQFWGCALFIEH | 0.652 ± 0.018
102 | SQGLALFLRPGY | 0.628 ± 0.057
103 | SQSFFDGVLVRV | 0.673 ± 0.059
104 | SRAAGILCVVQI | 0.615 ± 0.084
105 | SRAPPTSLVWGF | 0.678 ± 0.097
106 | SRDIKTDCLRRV | 0.688 ± 0.078
107 | SREKRKEEQTQK | 0.717 ± 0.018
108 | SRFGSVSCRPSI | 0.713 ± 0.079
109 | SRFPPDTFFSFL | 0.802 ± 0.14
110 | SRGARRRGGAGR | 0.656 ± 0.056
111 | SRGPSLYLCGVR | 0.63 ± 0.00074
112 | SRIALLSLGAIL | 0.707 ± 0.028
113 | SRIPARCDGKCI | 0.6722 ± 0.0037
114 | SRKEKNEKRSWG | 0.674 ± 0.041
115 | SRLGLLTDGVYA | 0.583 ± 0.025

Row | Sequence | protein stability index
116 | SRLLLPPRGILP | 0.76 ± 0.15
117 | SRLPSYVSACSF | 0.671 ± 0.011
118 | SRLRPHNSSTPV | 0.716 ± 0.053
119 | SRNLRRLEIRRE | 0.743 ± 0.027
120 | SRPFAILLCAEK | 0.62 ± 0.015
121 | SRPLANYARCSS | 0.639 ± 0.036
122 | SRPSPAMFLFSP | 0.737 ± 0.1
123 | SRRCKAFLCRGY | 0.6663 ± 0.0053
124 | SRRSNMRNMRTT | 0.657 ± 0.081
125 | SRRYLPHRPTSL | 0.732 ± 0.071
126 | SRTAFNRGTTRD | 0.681 ± 0.044
127 | SRVRSPPWTRKF | 0.739 ± 0.1
128 | SRWTFSFYRNLD | 0.683 ± 0.053
129 | SSAALSPPPPRP | 0.724 ± 0.027
130 | SSCTRLSILVWF | 0.52 ± 0.0056
131 | SSDFVFGHRFCR | 0.693 ± 0.015
132 | SSEKKKEDGGLG | 0.687 ± 0.069
133 | SSFPAGGWLFFL | 0.682 ± 0.029
134 | SSFVFGLCGGVA | 0.694 ± 0.03
135 | SSGPPRLPHSRR | 0.646 ± 0.046
136 | SSGTLSPLSPVP | 0.655 ± 0.027
137 | SSHSPFSPVLLP | 0.71 ± 0.017
138 | SSHVPPDLPSLH | 0.692 ± 0.031

Row | Sequence | protein stability index
139 | SSHYSSPAALPY | 0.696 ± 0.019
140 | SSILQFSCFHGN | 0.707 ± 0.036
141 | SSLEGMRSGLCR | 0.69 ± 0.045
142 | SSLFVISIPFRS | 0.639 ± 0.015
143 | SSLLPLLVPLAP | 0.723 ± 0.076
144 | SSLPVPGPFVND | 0.69 ± 0.066
145 | SSPALPPQPPSH | 0.723 ± 0.0054
146 | SSPLLSISPHFP | 0.666 ± 0.042
147 | SSPLPPPSPLPA | 0.678 ± 0.031
148 | SSPLSSRFLLCL | 0.579 ± 0.027
149 | SSPPHLPRPSSP | 0.748 ± 0.024
150 | SSPPPCPLPTYP | 0.624 ± 0.068
151 | SSPPPLPPSPPP | 0.673 ± 0.019
152 | SSPRRRLHSLSL | 0.782 ± 0.04
153 | SSPSPCSRPLLL | 0.7112 ± 0.0011
154 | SSPSPPSLLPSL | 0.70987 ± 0.00056
155 | SSPSPPSSSSFP | 0.639 ± 0.028
156 | SSRPTLLSPPPA | 0.706 ± 0.012
157 | SSRRNNIPKRYK | 0.713 ± 0.031
158 | SSSLCSSSLGGS | 0.605 ± 0.069
159 | SSSPTFLLSPFP | 0.721 ± 0.012
160 | SSTPGWVSCDKI | 0.735 ± 0.029
